Results: patent publication US20030199671A1, “Binding molecules for Fc-region polypeptides” (priority 2001, published 2003)
Where two headings read alike, the source gives them in different places. Non-standard residues stand in square brackets, D forms with d. Nle = CCCC[C@H](N)C(=O)O

Experiments:
Assay type in all cases: binding
IgG4 = IgG4 (Homo sapiens, UniProt P01861); design: all human subtypes derived from myeloma patients; purchased Calbiochem 400126; host or cells: myeloma patients
Protocol: (§1) In addition, the following targets, all unfractionated IgGs, were also evaluated with selected immobilized peptides for species specificity characterization in a similar format: human IgG, goat IgG, bovine IgG, and mouse IgG (Sigma, product nos. I4506, I5256, I5506, and I15381, respectively). In addition, 10 μl aliquots of hydrolyzed NHS-activated Sepharose 4 Fast Flow (Amersham Pharmacia Biotech, product no. 17-0906-01) and immobilized recombinant Protein A (RepliGen Corp., product no. IPA-400) were also assayed as negative and positive controls. IgG targets were diluted into 10 mM phosphate buffer containing 150 mM NaCl and 0.01% Tween 20, pH 7.2 (PBST) or 50 mM Tris buffer containing, 150 mM NaCl and 0.01% Tween-20, pH 7.5 (TBST). Batch (static) binding and elution studies were conducted in a 96-well assay filterplate (Millipore MultiScreen-HV, with 0.45 μm Durapore membrane, product no. MAHVN4510). The target was allowed to incubate with the resin for 1-1.5 hours with shaking at room temperature. Unbound target was collected by centrifugation of samples from the assay plate directly into a low-UV absorbing 96-well collection plate (Costar, product no. 3635 or Greiner, product no. 655801). The unbound target was then quantitated by reading the absorbance at 280 nm (normalized to 1 cm pathlength, 1.4 mg/ml A280 extinction coefficient) of the collection plate on a microplate spectrophotometer (Molecular Devices Corp., SPECTRAmax PLUS) against a buffer blank.
(§2) The percentage bound target was determined by subtracting the mass determined as unbound from the corresponding condition's control values (control non-filtered added directly to the collection plate and/or the negative control). The assay plate was washed (3×) with 200 μl of binding buffer by vacuum filtration followed by addition of 100 μl of various elution conditions (e.g.: 0.1 M sodium bicarbonate buffer, pH 8.5 and/or 0.1 M sodium citrate buffer, pH 4.0). After a 30-60 minute incubation with shaking at room temperature, the eluted target was collected by centrifugation of the assay plate into another collection plate and quantitated in a similar manner. Percent elution of total load was then determined to characterize elution recovery efficiency under various conditions. The assay plate was then washed (3×) with 200 μl of binding buffer by vacuum filtration followed by addition of a resin cleaning condition (e.g., 0.1M CAPS buffer (3-[Cyclohexylamino]-1-propane-sulfonic acid), pH 11.5, to regenerate the resin for re-use. Percentage mass balance determination was calculated to be 90-100% on average.

human IgG1 = biological target: T1, human IgG1 (Homo sapiens, UniProt P01857)
T1 construct: all human subtypes derived from myeloma patients; purchased Calbiochem 400120; host or cells: myeloma patients
T1 sequence (P01857 1-330 isoform P01857-1): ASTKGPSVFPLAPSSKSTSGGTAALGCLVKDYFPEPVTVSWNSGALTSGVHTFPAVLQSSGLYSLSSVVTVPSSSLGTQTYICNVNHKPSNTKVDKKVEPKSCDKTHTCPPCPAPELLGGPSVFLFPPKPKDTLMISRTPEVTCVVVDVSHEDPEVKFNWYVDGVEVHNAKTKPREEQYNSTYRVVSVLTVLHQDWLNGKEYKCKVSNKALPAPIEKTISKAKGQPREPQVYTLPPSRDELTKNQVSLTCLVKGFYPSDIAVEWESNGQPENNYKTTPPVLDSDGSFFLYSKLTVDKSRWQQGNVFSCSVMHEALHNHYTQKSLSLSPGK
Protocol: as §1, §2

human IgG = tested on: human IgG
Protocol: as §1, §2

human IgG2 = biological target: T2, human IgG2 (Homo sapiens, UniProt P01859)
T2 construct: all human subtypes derived from myeloma patients; purchased Calbiochem 400122; host or cells: myeloma patients
T2 sequence (P01859 1-326 isoform P01859-1): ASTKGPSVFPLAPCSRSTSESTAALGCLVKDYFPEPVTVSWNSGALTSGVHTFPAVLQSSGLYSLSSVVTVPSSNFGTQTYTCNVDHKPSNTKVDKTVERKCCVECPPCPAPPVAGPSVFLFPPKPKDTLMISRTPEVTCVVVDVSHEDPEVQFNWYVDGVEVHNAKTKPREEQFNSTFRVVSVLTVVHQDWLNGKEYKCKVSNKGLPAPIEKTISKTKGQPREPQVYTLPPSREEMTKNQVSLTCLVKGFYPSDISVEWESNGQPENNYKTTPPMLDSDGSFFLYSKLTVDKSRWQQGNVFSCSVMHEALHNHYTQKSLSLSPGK
Protocol: as §1, §2

IgG3 = IgG3 (Homo sapiens, UniProt P01860); design: all human subtypes derived from myeloma patients; purchased Calbiochem 400124; host or cells: myeloma patients
IgG3, sequence (P01860 1-377 isoform P01860-1): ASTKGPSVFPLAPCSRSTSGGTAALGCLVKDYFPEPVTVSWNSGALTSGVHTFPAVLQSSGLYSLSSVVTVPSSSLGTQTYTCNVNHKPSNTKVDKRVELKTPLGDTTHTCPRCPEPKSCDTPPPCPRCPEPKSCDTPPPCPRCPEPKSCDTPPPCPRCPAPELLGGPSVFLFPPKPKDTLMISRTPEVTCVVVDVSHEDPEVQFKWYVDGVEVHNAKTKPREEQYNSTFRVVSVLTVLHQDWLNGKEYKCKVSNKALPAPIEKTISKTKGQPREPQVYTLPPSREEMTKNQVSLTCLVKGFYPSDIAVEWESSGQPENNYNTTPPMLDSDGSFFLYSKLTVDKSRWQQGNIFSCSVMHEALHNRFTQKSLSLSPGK
Protocol: as §1, §2

[1] = peptide immobilized on NHS activated sepharose 4 fast flow, target ligand density 2.0 μmole/ml, batch filterplate, hIgG4
[2] = peptide immobilized on NHS activated sepharose 4 fast flow, target ligand density 2.0 μmole/ml, batch filterplate, hIgG1
[3] = peptide immobilized on NHS activated sepharose 4 fast flow, target ligand density 2.0 μmole/ml, batch filterplate, hIgG
[4] = peptide immobilized on NHS activated sepharose 4 fast flow, target ligand density 2.0 μmole/ml, batch filterplate, hIgG2
[5] = peptide immobilized on NHS activated sepharose 4 fast flow, target ligand density 2.0 μmole/ml, batch filterplate, hIgG3
[6] = Table 20, average ligand density 1.9 μmole/ml

IgG4, sequence (P01861 1-327 isoform P01861-1): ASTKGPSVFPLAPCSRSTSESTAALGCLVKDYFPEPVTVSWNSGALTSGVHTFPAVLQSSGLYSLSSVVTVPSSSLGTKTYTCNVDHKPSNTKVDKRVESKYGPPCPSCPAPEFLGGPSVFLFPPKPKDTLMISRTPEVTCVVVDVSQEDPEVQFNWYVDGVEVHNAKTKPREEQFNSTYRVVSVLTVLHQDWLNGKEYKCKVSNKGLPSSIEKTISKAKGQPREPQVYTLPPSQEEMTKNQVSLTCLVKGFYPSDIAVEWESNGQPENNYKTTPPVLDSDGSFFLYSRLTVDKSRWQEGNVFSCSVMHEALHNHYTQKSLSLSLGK

Substance	Batch Binding (% Capture of Total Load) hIgG4 (IgG4; [1]) [%]	Batch Binding (% Capture of Total Load) hIgG1 (human IgG1; [2]) [%]	Batch Binding (% Capture of Total Load) hIgG (human IgG; [3]) [%]	Batch Binding (% Capture of Total Load) hIgG2 (human IgG2; [4]) [%]	Batch Binding (% Capture of Total Load) hIgG3 (IgG3; [5]) [%]	Batch Binding (% Capture of Total Load) hIgG4 (IgG4; [6]) [%]	Batch Binding (% Capture of Total Load) hIgG1 (human IgG1; [6]) [%]	Batch Binding (% Capture of Total Load) hIgG (human IgG; [6]) [%]	Batch Binding (% Capture of Total Load) hIgG2 (human IgG2; [6]) [%]	Batch Binding (% Capture of Total Load) hIgG3 (IgG3; [6]) [%]	further results
Ac-ERACSRDWSGALVWCAGHEPGPEGGGK-NH2 (not fully specified (bridges); printed as Ac-ERACSRDWSGALVWCAGHEPGPEGGGK-NH2; cysteine pairing not given here) [DX1141]	2	17	21	9	0	–	–	–	–	–	–
Ac-VCSRDWSGALVWCAGHEPGPEGGGK-NH2 (not fully specified (bridges); printed as Ac-VCSRDWSGALVWCAGHEPGPEGGGK-NH2; cysteine pairing not given here) [DX1145]	42	74	66	63	0	–	–	–	–	–	–
Ac-TCSRDWSGALVWCAGHEPGPEGGGK-NH2 (not fully specified (bridges); printed as Ac-TCSRDWSGALVWCAGHEPGPEGGGK-NH2; cysteine pairing not given here) [DX1143]	55	88	81	83	0	–	–	–	–	–	–
Ac-VCVYTTWGELIWCDNHEPGPEGGGK-NH2 (not fully specified (bridges); printed as Ac-VCVYTTWGELIWCDNHEPGPEGGGK-NH2; cysteine pairing not given here) [DX1067]	–	–	–	–	–	25	33	44	28	0	–
Ac-[Nle]CVYTTWGELIWCDNHEPGPEGGGK-NH2 (not fully specified (bridges); printed as Ac-[Nle]CVYTTWGELIWCDNHEPGPEGGGK-NH2; cysteine pairing not given here) [DX1068]	–	–	–	–	–	21	33	36	25	0	–
Ac-ECSRDWSGALVWCAGHEPGPEGGGK-NH2 (not fully specified (bridges); printed as Ac-ECSRDWSGALVWCAGHEPGPEGGGK-NH2; cysteine pairing not given here) [DX1144]	61	88	81	84	0	–	–	–	–	–	–
Ac-GDWGECTVTSYGELIWCGGLEPGPEGGGK-NH2 (not fully specified (bridges); printed as Ac-GDWGECTVTSYGELIWCGGLEPGPEGGGK-NH2; cysteine pairing not given here) [DX1070]	–	–	–	–	–	–	–	–	–	–	hIgG4 elution pH 3.0 (% of Total Load) (IgG4; Table 13): 14%; hIgG1 elution pH 3.0 (% of Total Load) (human IgG1; Table 13): 22%; % IgG Capture - Batch Binding, Human IgG (human IgG; Table 14, average ligand density 1.8 μM/ml): 91%; hIgG2 elution pH 3.0 (% of Total Load) (human IgG2; Table 13): 42%
Ac-CVYTTWGELIWCDNHEPGPEGGGK-NH2 (not fully specified (bridges); printed as Ac-CVYTTWGELIWCDNHEPGPEGGGK-NH2; cysteine pairing not given here) [DX1069]	–	–	–	–	–	51	77	74	68	2	Binding properties / profile relative to parent peptide (human IgG; batch filterplate, human IgG and subtypes): almost identical to those of DX249
Ac-DHMCVYTTWGELIWCDNHEPGPEGGGK-NH2 (not fully specified (bridges); printed as Ac-DHMCVYTTWGELIWCDNHEPGPEGGGK-NH2; cysteine pairing not given here) [DX1062]	–	–	–	–	–	49	73	73	63	0	–
Ac-EHMCVYTTWGELIWCDNHEPGPEGGGK-NH2 (not fully specified (bridges); printed as Ac-EHMCVYTTWGELIWCDNHEPGPEGGGK-NH2; cysteine pairing not given here) [DX1063]	–	–	–	–	–	45	73	71	63	0	–
Ac-ACSRDWSGALVWCAGHEPGPEGGGK-NH2 (not fully specified (bridges); printed as Ac-ACSRDWSGALVWCAGHEPGPEGGGK-NH2; cysteine pairing not given here) [DX1142]	39	66	57	55	0	–	–	–	–	–	–
Ac-ACVYTTWGELIWCDNHEPGPEGGGK-NH2 (not fully specified (bridges); printed as Ac-ACVYTTWGELIWCDNHEPGPEGGGK-NH2; cysteine pairing not given here) [DX1064]	–	–	–	–	–	39	70	73	63	0	–
